Tests used:
recombinant canine β NGF [1] = molecular target: T1, recombinant canine β NGF (canine, UniProt Q29074 110-229 (pig entry)); assay: cell-based or functional assay
T1 chain: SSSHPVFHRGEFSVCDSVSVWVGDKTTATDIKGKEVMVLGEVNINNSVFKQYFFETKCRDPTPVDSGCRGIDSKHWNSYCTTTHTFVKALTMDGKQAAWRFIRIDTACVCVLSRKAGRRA

recombinant canine β NGF [2] = molecular target: T2, recombinant canine β NGF (canine, UniProt Q29074 110-229 (pig entry)); assay: cell-based or functional assay
T2 chain: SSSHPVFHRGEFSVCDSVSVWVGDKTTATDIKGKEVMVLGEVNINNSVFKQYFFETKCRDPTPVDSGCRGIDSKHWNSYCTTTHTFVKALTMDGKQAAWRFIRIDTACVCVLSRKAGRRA

B1: Mu77 Canine IgG1/k Chimera (antibody, V domains shown)
VH: EVQLQQSGAELVKPGASVKLSCTASGFNIKDTYIYWVKQRPEQGLEWIGRIDPANGNTIYASKFQGKASITADTSSNTAYMQLSSLTSGDTAVYYCAGYGYYAYWGQGTTLTVSS
VL: DVVLTQTPLSLPVNIGDQASISCKSTKSLLNGDGFTYLDWYLQKPGQSPQLLIYLVSNRFSGVPDRFSGSGSGTDFTLKISRVEAEDLGVYYCFESNYLFTFGSGTKLEMKR
- TF-1 cell proliferation potency (70 pM canine NGF) (recombinant canine β NGF [1]): < 50 pM

B2: 73.4 Canine IgG1/k (antibody, V domains shown)
VH: EVQLVQSAAEVKKPGASVKVSCKASGYIFINYWMHWVQQAPGAGLEWMGRIDPYGGGTKHNEKFKRRVTLTADKSTSTVYMELSNLRTEDTAVYYCTRSGYDYYFDVWGQGTLVTVSS
VL: DIQMTQTPLSLSASPGESASISCRASENIYSFLAWHRQKPGQSPQLLIYNANTLAEGVPSRFSGSGSGTQFTLRISRVEDEDAGLYYCQHHFGTPFTFGQGTKLEIKR
- IC50, canine NGF-induced TF-1 cell proliferation (70 pM canine NGF) (recombinant canine β NGF [2]): 0 nM

B3: 72.3 Canine IgG1/k (antibody, V domains shown)
VH: EVHLVESGGDLVKPGGSLRLSCVASGFTFSDYYMFWIRQSPGKGLEWVATISDGGSYTYYTDNVKGRFTISRDNANNNLYLQMNSLKAEDTAVYYCAKDWSDSEGFAYWGQGTLVTVSS
VL: DVLMTQTPPSLSVSPREPASISCRSSQSIVQSNGNTYLEWYLQKPGQSPKLLIYKVSNRFSGVPDRFSGSGSGTDFTLRISRVEADDTGVYYCFQGSHVPFTFGAGTKVELKR
- IC50, canine NGF-induced TF-1 cell proliferation (70 pM canine NGF) (recombinant canine β NGF [2]): 0 nM

B4: 72.4 Canine IgG1/k (antibody, V domains shown)
VH: EVHLVESGGDLVKPGGSLRLSCVASGFTFSDYYMFWVRHSPGKGLEWVATISDGGSYTYYTDNVKGRFTISRDNANNTLYLQMNSLRAEDTAVYYCAKDWSDSEGFAYWGQGTLVTVSS
VL: DIVMTQTPPSLSVSPREPASISCRSSQSIVQSNGNTYLEWYLQKPGQSPKLLIYKVSNRFSGVPDRFSGSGSGTDFTLRISRVEADDTGVYYCFQGSHVPFTFGAGTKVELKR
- IC50, canine NGF-induced TF-1 cell proliferation (70 pM canine NGF) (recombinant canine β NGF [2]): 0 nM

B5: PR-1254973 (antibody, mouse IgG2b, V domains shown)
VH: QVQLQQPGAELVKPGASVKLSCKASGYTFTNYWMHWVKQRPGQGLEWIGRIDPYGGGTKHNEKFKRKATVTADKSSSTAYILLSSLTSEDSAVYYCTRSGYDYYFDVWGTGTTVTVSS
VL: DIQMTQSPASLSASVGETVTVTCRASENIYSFLAWHQQKQGKSPQLLVYNANTLAEGVPSRFSGSGSGTQFSLKINSLQPEDFGSYYCQHHFGTPFTFGSGTKLEIKR
- PathHunter IC50 (441 pM canine NGF) (recombinant canine β NGF [1]): < 1 nM
- SureFire cellular pERK IC50 (128 pM canine NGF) (recombinant canine β NGF [1]): < 1 nM

B6: Mu73 Canine IgG1/k Chimera (antibody, V domains shown)
VH: QVQLQQPGAELVKPGASVKLSCKASGYTFTNYWMHWVKQRPGQGLEWIGRIDPYGGGTKHNEKFKRKATVTADKSSSTAYILLSSLTSEDSAVYYCTRSGYDYYFDVWGTGTTVTVSS
VL: DIQMTQSPASLSASVGETVTVTCRASENIYSFLAWHQQKQGKSPQLLVYNANTLAEGVPSRFSGSGSGTQFSLKINSLQPEDFGSYYCQHHFGTPFTFGSGTKLEIKR
- TF-1 cell proliferation potency (70 pM canine NGF) (recombinant canine β NGF [1]): < 50 pM

B7: PR-1254981 (antibody, mouse IgG1, V domains shown)
VH: EVQLVESGGGAVKPGGSLTLSCAASGFTFSNHYMYWVRQTPEKRLEWVASISDGGAYTFYPDTVKGRFTISRDNVNNNLYLQMRHLKSEDTAMYYCTREESANNGFAFWGQGTLVTVSA
VL: DVLMTQTPLSLPVSLGDQASISCRSSQSILHSNGNTYLEWYLQKPGQSPNLLIYRVSNRFSGVPDRFSGSGSGTDFTLKISRVEAEDLGVYYCFQGAHVPFTFGSGTKLEIKR
- PathHunter IC50 (441 pM canine NGF) (recombinant canine β NGF [1]): < 1 nM
- SureFire cellular pERK IC50 (128 pM canine NGF) (recombinant canine β NGF [1]): < 1 nM

B8: Mu81 Canine IgG1/k Chimera (antibody, V domains shown)
VH: EVQLVESGGGAVKPGGSLTLSCAASGFTFSNHYMYWVRQTPEKRLEWVASISDGGAYTFYPDTVKGRFTISRDNVNNNLYLQMRHLKSEDTAMYYCTREESANNGFAFWGQGTLVTVSA
VL: DVLMTQTPLSLPVSLGDQASISCRSSQSILHSNGNTYLEWYLQKPGQSPNLLIYRVSNRFSGVPDRFSGSGSGTDFTLKISRVEAEDLGVYYCFQGAHVPFTFGSGTKLEIKR
- TF-1 cell proliferation potency (70 pM canine NGF) (recombinant canine β NGF [1]): < 50 pM

B9: 77.3 Canine IgG1/k (antibody, V domains shown)
VH: EVQLVQSAAEVKKPGASVKVSCKASGFNIKDTYIYWVKQAPGAGLEWIGRIDPANGNTIYASKFQGKASITADTSTNTAYMELSNLRTEDTAVYYCAGYGYYAYWGQGTLVTVSS
VL: DVVLTQTPRSLSVSPGETASISCKSTKSLLNGDGFTYLDWYRQKPGQSPQLLIYLVSNRFSGVPDRFSGSGSGTDFTLRISRVEADDTGLYYCFESNYLFTFGQGTNLEMKR
- IC50, canine NGF-induced TF-1 cell proliferation (70 pM canine NGF) (recombinant canine β NGF [2]): 0.625 nM

B10: PR-1254982 (antibody, mouse IgG1, V domains shown)
VH: QVQLKESGPGLVAPSQSLSITCTVSGFSLTGYNINWVRQPPGKGLEWLGMIWGYGDTDYNSALKSRLSISKDNSKSQVFLKMNSLQTDDTARYYCARDHYGGNDWYFDVWGTGTTVTVSS
VL: DIQMTQTTSSLSASLGDRVTITCRASQDITNYLNWYQQKPDGTVKLLIYYTSRLHSGVPSRFSGSGSGTDYSLTISNLDQEDIATYFCQQGKTLPRTFGGGTKLEIKR
- PathHunter IC50 (441 pM canine NGF) (recombinant canine β NGF [1]): < 1 nM
- SureFire cellular pERK IC50 (128 pM canine NGF) (recombinant canine β NGF [1]): < 1 nM

B11: Mu82 Canine IgG1/k Chimera (antibody, V domains shown)
VH: QVQLKESGPGLVAPSQSLSITCTVSGFSLTGYNINWVRQPPGKGLEWLGMIWGYGDTDYNSALKSRLSISKDNSKSQVFLKMNSLQTDDTARYYCARDHYGGNDWYFDVWGTGTTVTVSS
VL: DIQMTQTTSSLSASLGDRVTITCRASQDITNYLNWYQQKPDGTVKLLIYYTSRLHSGVPSRFSGSGSGTDYSLTISNLDQEDIATYFCQQGKTLPRTFGGGTKLEIKR
- TF-1 cell proliferation potency (70 pM canine NGF) (recombinant canine β NGF [1]): < 50 pM

B12: 77.4 Canine IgG1/k (antibody)
heavy: EVQLVQSAAEVKKPGASVKVSCKASGYIFIDTYIYWVKQAPGAGLEWMGRIDPANGNTIYASKFQGRVTLTADTSTNTVYMELSNLRTEDTAVYYCAGYGYYAYWGQGTLVTVSSASTTAPSVFPLAPSCGSTSGSTVALACLVSGYFPEPVTVSWNSGSLTSGVHTFPSVLQSSGLHSLSSMVTVPSSRWPSETFTCNVVHPASNTKVDKPVFNECRCTDTPPCPVPEPLGGPSVLIFPPKPKDILRITRTPEVTCVVLDLGREDPEVQISWFVDGKEVHTAKTQSREQQFNGTYRVVSVLPIEHQDWLTGKEFKCRVNHIDLPSPIERTISKARGRAHKPSVYVLPPSPKELSSSDTVSITCLIKDFYPPDIDVEWQSNGQQEPERKHRMTPPQLDEDGSYFLYSKLSVDKSRWQQGDPFTCAVMHETLQNHYTDLSLSHSPGK
light: DLVLTQTPRSLSVSPGETASISCKSTKSLLNGDGFTYLDWYRQKPGQSPQLLIYLVSNRFSGVPDRFSGSGSGTDFTLRISRVEADDTGLYYCFESNYLFTFSQGTNLEMKRNDAQPAVYLFQPSPDQLHTGSASVVCLLNSFYPKDINVKWKVDGVIQDTGIQESVTEQDKDSTYSLSSTLTMSSTEYLSHELYSCEITHKSLPSTLIKSFQRSECQRVD
- IC50, canine NGF-induced TF-1 cell proliferation (70 pM canine NGF) (recombinant canine β NGF [2]): 0 nM
